Assays:
[1] = biological target: T1, human FcγRIIB α subunit extracellular domain-6His-GST fusion (human, UniProt P31994 43-217); assay: ELISA, IgG:IgE hexamers on receptor-GST
T1 construct: not shown: glutathione S-transferase (GST)
T1 sequence: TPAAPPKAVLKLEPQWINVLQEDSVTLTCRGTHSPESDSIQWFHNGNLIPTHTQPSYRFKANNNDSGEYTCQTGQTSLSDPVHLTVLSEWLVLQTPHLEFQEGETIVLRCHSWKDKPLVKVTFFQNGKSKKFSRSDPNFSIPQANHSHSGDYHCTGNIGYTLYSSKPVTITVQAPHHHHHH

[2] = biological target: T2, human FcγRIIIA-F158 α subunit extracellular domain-6His-GST fusion (human, UniProt P08637 17-208); assay: ELISA, IgG:IgE hexamers on receptor-GST
T2 construct: also called FcγRIIIA-Phe158; not shown: glutathione S-transferase (GST)

[3] = biological target: T3, human FcγRIIA-R131 α subunit extracellular domain-6His-GST fusion (human, UniProt P12318 34-217); assay: ELISA, IgG:IgE hexamers on receptor-GST
T3 construct: also called FcγRIIA-Arg131; not shown: glutathione S-transferase (GST)
T3 sequence: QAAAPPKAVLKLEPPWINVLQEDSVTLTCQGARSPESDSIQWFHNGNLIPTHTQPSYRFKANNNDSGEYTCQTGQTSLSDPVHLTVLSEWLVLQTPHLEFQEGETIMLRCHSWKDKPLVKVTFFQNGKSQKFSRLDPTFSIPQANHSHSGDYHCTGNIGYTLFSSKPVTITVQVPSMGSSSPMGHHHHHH

[4] = biological target: T4, human FcγRIIIA-F158 α subunit extracellular domain-His6-GST fusion (human, UniProt P08637 17-208); assay: ELISA, IgG complex, receptor coated
T4 construct: ECD-6His-GST fusion made in 293 cells; also called FcγRIIIA-Phe158; not shown: glutathione S transferase (GST)

[5] = biological target: T5, human FcγRIIA-R131 α subunit extracellular domain-His6-GST fusion (human, UniProt P12318 34-217); assay: ELISA, IgG complex, receptor coated
T5 construct: ECD-6His-GST fusion made in 293 cells; also called FcγRIIA-Arg131; not shown: glutathione S transferase (GST)
T5 sequence: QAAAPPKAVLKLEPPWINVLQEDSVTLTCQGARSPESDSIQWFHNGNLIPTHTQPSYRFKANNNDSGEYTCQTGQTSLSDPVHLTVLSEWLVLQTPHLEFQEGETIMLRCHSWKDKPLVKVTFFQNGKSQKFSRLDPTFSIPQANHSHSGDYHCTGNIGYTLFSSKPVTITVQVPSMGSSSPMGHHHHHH

[6] = biological target: T6, human FcγRIIIA-V158 α subunit extracellular domain-His6-GST fusion (human, UniProt P08637 17-208); assay: ELISA, IgG complex, receptor coated
T6 construct: ECD-6His-GST fusion made in 293 cells; also called FcγRIIIA-Val158; not shown: glutathione S transferase (GST)

[7] = biological target: T6, human FcγRIIIA-V158 α subunit …; assay: ELISA, IgG monomer, receptor coated

T6 sequence (P08637 other isoform, or with tags, fused parts or gaps, form in doubt): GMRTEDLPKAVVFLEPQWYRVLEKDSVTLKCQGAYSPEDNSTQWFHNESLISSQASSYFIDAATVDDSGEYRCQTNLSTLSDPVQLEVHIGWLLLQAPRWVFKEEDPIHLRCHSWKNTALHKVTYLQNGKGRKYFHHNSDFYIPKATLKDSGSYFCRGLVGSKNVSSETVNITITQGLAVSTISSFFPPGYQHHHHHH
T2 sequence (P08637 other isoform, or with tags, fused parts or gaps, form in doubt): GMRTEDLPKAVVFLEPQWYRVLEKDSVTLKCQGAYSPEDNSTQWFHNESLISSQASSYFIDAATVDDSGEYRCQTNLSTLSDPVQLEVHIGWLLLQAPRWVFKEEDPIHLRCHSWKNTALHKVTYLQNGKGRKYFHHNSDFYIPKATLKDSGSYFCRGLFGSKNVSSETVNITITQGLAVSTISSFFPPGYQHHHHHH

Binder | ratio to native IgG1 [1] | ratio to native IgG1 [2] | ratio to native IgG1 [3] | ratio of binding, variant/native IgG1 (mean) [4] | ratio of binding, variant/native IgG1 (mean) [5] | ratio of binding, variant/native IgG1 (mean) [6] | ratio of binding, variant/native IgG1 (mean) [7]
E27 IgG1 variant E333(352)A/K334(353)A (antibody) heavy: not shown light: DIQLTQSPSSLSASVGDRVTITCRASKPVDGEGDSYLNWYQQKPGKAPKLLIYAASYLESGVPSRFSGSGSGTDFTLTISSLQPEDFATYYCQQSHEDPYTFGQGTKVEIKRTVAAPSVFIFPPSDEQLKSGTASVVCLLNNFYPREAKVQWKVDNALQSGNSQESVTEQDSKDSTYSLSSTLTLSKADYEKHKVYACEVTHQGLSSPVTKSFNRGEC | 0.63 | 1.3 | 0.72 | – | – | – | –
E27 IgG1 variant S267(280)A/E258(271)A (antibody) heavy: not shown light: DIQLTQSPSSLSASVGDRVTITCRASKPVDGEGDSYLNWYQQKPGKAPKLLIYAASYLESGVPSRFSGSGSGTDFTLTISSLQPEDFATYYCQQSHEDPYTFGQGTKVEIKRTVAAPSVFIFPPSDEQLKSGTASVVCLLNNFYPREAKVQWKVDNALQSGNSQESVTEQDSKDSTYSLSSTLTLSKADYEKHKVYACEVTHQGLSSPVTKSFNRGEC | 2.01 | 1.04 | 1.62 | – | – | – | –
E27 IgG1 variant S267(280)A/E258(271)A/D280(295)A/R255(268)A (antibody, also called IG2 264) heavy: EVQLVESGGGLVQPGGSLRLSCAVSGYSITSGYSWNWIRQAPGKGLEWVASIKYSGETKYNPSVKGRITISRDDSKNTFYLQMNSLRAEDTAVYYCARGSHYFGHWHFAVWGQGTLVTVSSASTKGPSVFPLAPSSKSTSGGTAALGCLVKDYFPEPVTVSWNSGALTSGVHTFPAVLQSSGLYSLSSVVTVPSSSLGTQTYICNVNHKPSNTKVDKKVEPKSCDKTHTCPPCPAPELLGGPSVFLFPPKPKDTLMISATPAVTCVVVDVAHEDPEVKFNWYVAGVEVHNAKTKPREEQYNSTYRVVSVLTVLHQDWLNGKEYKCKVSNKALPAPIEKTISKAKGQPREPQVYTLPPSREEMTKNQVSLTCLVKGFYPSDIAVEWESNGQPENNYKTTPPVLDSDGSFFLYSKLTVDKSRWQQGNVFSCSVMHEALHNHYTQKSLSLSPGK light: DIQLTQSPSSLSASVGDRVTITCRASKPVDGEGDSYLNWYQQKPGKAPKLLIYAASYLESGVPSRFSGSGSGTDFTLTISSLQPEDFATYYCQQSHEDPYTFGQGTKVEIKRTVAAPSVFIFPPSDEQLKSGTASVVCLLNNFYPREAKVQWKVDNALQSGNSQESVTEQDSKDSTYSLSSTLTLSKADYEKHKVYACEVTHQGLSSPVTKSFNRGEC | 2.03 | 0.89 | 1.48 | – | – | – | –
anti-IgE E27 IgG1 variant T256(269)N (antibody, Fc variant of E27) heavy: not shown light: DIQLTQSPSSLSASVGDRVTITCRASKPVDGEGDSYLNWYQQKPGKAPKLLIYAASYLESGVPSRFSGSGSGTDFTLTISSLQPEDFATYYCQQSHEDPYTFGQGTKVEIKRTVAAPSVFIFPPSDEQLKSGTASVVCLLNNFYPREAKVQWKVDNALQSGNSQESVTEQDSKDSTYSLSSTLTLSKADYEKHKVYACEVTHQGLSSPVTKSFNRGEC | – | – | – | 1.13 ratio | 1.03 ratio | 0.95 ratio | 0.88 ratio
anti-IgE E27 IgG1 variant T256(269)A (antibody, Fc variant of E27; also called IG2 11; Thr256Ala) heavy: not shown light: DIQLTQSPSSLSASVGDRVTITCRASKPVDGEGDSYLNWYQQKPGKAPKLLIYAASYLESGVPSRFSGSGSGTDFTLTISSLQPEDFATYYCQQSHEDPYTFGQGTKVEIKRTVAAPSVFIFPPSDEQLKSGTASVVCLLNNFYPREAKVQWKVDNALQSGNSQESVTEQDSKDSTYSLSSTLTLSKADYEKHKVYACEVTHQGLSSPVTKSFNRGEC | – | – | – | 1.32 ratio | 1.41 ratio | 0.97 ratio | 1.2 ratio
E27 IgG1 variant S267(280)A/H268(281)A (antibody, also called IG2 96) heavy: not shown light: DIQLTQSPSSLSASVGDRVTITCRASKPVDGEGDSYLNWYQQKPGKAPKLLIYAASYLESGVPSRFSGSGSGTDFTLTISSLQPEDFATYYCQQSHEDPYTFGQGTKVEIKRTVAAPSVFIFPPSDEQLKSGTASVVCLLNNFYPREAKVQWKVDNALQSGNSQESVTEQDSKDSTYSLSSTLTLSKADYEKHKVYACEVTHQGLSSPVTKSFNRGEC | 1.56 | 0.96 | 1.41 | – | – | – | –
E27 IgG1 variant S267(280)A/E293(310)A (antibody, also called IG2 251) heavy: not shown light: DIQLTQSPSSLSASVGDRVTITCRASKPVDGEGDSYLNWYQQKPGKAPKLLIYAASYLESGVPSRFSGSGSGTDFTLTISSLQPEDFATYYCQQSHEDPYTFGQGTKVEIKRTVAAPSVFIFPPSDEQLKSGTASVVCLLNNFYPREAKVQWKVDNALQSGNSQESVTEQDSKDSTYSLSSTLTLSKADYEKHKVYACEVTHQGLSSPVTKSFNRGEC | 1.85 | 0.92 | 1.67 | – | – | – | –
E27 IgG1 variant S267(280)A/E272(285)A (antibody, also called IG2 250) heavy: not shown light: DIQLTQSPSSLSASVGDRVTITCRASKPVDGEGDSYLNWYQQKPGKAPKLLIYAASYLESGVPSRFSGSGSGTDFTLTISSLQPEDFATYYCQQSHEDPYTFGQGTKVEIKRTVAAPSVFIFPPSDEQLKSGTASVVCLLNNFYPREAKVQWKVDNALQSGNSQESVTEQDSKDSTYSLSSTLTLSKADYEKHKVYACEVTHQGLSSPVTKSFNRGEC | 1.82 | 0.95 | 1.51 | – | – | – | –
anti-IgE E27 IgG1 variant S298(317)N (antibody, Fc variant of E27; also called IG2 72; Ser298Asn) heavy: not shown light: DIQLTQSPSSLSASVGDRVTITCRASKPVDGEGDSYLNWYQQKPGKAPKLLIYAASYLESGVPSRFSGSGSGTDFTLTISSLQPEDFATYYCQQSHEDPYTFGQGTKVEIKRTVAAPSVFIFPPSDEQLKSGTASVVCLLNNFYPREAKVQWKVDNALQSGNSQESVTEQDSKDSTYSLSSTLTLSKADYEKHKVYACEVTHQGLSSPVTKSFNRGEC | – | – | – | 0.06 ratio | 0.08 ratio | 0.66 ratio | 0.17 ratio
E27 IgG1 variant S267(280)A/D280(295)A (antibody, also called IG2 248) heavy: not shown light: DIQLTQSPSSLSASVGDRVTITCRASKPVDGEGDSYLNWYQQKPGKAPKLLIYAASYLESGVPSRFSGSGSGTDFTLTISSLQPEDFATYYCQQSHEDPYTFGQGTKVEIKRTVAAPSVFIFPPSDEQLKSGTASVVCLLNNFYPREAKVQWKVDNALQSGNSQESVTEQDSKDSTYSLSSTLTLSKADYEKHKVYACEVTHQGLSSPVTKSFNRGEC | 1.96 | 1.13 | 1.54 | – | – | – | –
anti-IgE E27 IgG1 variant S298(317)L (antibody, Fc variant of E27) heavy: not shown light: DIQLTQSPSSLSASVGDRVTITCRASKPVDGEGDSYLNWYQQKPGKAPKLLIYAASYLESGVPSRFSGSGSGTDFTLTISSLQPEDFATYYCQQSHEDPYTFGQGTKVEIKRTVAAPSVFIFPPSDEQLKSGTASVVCLLNNFYPREAKVQWKVDNALQSGNSQESVTEQDSKDSTYSLSSTLTLSKADYEKHKVYACEVTHQGLSSPVTKSFNRGEC | – | – | – | 0.34 ratio | 1.14 ratio | 0.83 ratio | 0.67 ratio
anti-IgE E27 IgG1 variant S298(317)T (antibody, Fc variant of E27; also called IG2 71; Ser298Thr) heavy: not shown light: DIQLTQSPSSLSASVGDRVTITCRASKPVDGEGDSYLNWYQQKPGKAPKLLIYAASYLESGVPSRFSGSGSGTDFTLTISSLQPEDFATYYCQQSHEDPYTFGQGTKVEIKRTVAAPSVFIFPPSDEQLKSGTASVVCLLNNFYPREAKVQWKVDNALQSGNSQESVTEQDSKDSTYSLSSTLTLSKADYEKHKVYACEVTHQGLSSPVTKSFNRGEC | – | – | – | 0.89 ratio | 0.41 ratio | 0.96 ratio | 0.75 ratio

Reference: US7183387 (Genentech, dated 2007)
